Data published in patent US20100158922A1 (NOVIMMUNE S A, published 2010).
Substitutions are numbered along the chain they refer to. One block for each binder: values may come before it.

What was measured:
recombinant human IFNγ [1] = target: T1, recombinant human IFNγ (human, UniProt P01579 24-166, limits assumed); test: cell-based or functional assay
T1 sequence (looked up): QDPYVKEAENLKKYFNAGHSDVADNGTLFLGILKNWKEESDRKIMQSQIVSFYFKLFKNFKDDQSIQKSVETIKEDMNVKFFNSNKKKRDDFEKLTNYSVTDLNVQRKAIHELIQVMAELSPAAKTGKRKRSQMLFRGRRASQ

[2] = target: T2, recombinant cynomolgus IFNγ (cynomolgus monkey, UniProt P63309 24-165); test: Binding, cross-reactivity table (Sandwich ELISA)
T2 construct: also called rcyIFNγ
T2 sequence (looked up): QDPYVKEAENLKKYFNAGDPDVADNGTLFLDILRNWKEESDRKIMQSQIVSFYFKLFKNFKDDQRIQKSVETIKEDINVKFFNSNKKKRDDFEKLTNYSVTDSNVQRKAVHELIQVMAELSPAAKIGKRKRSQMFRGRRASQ

recombinant human IFNγ [3] = target: T1, recombinant human IFNγ; test: Binding, cross-reactivity table (Sandwich ELISA)
native human IFNγ = target: T3, native human IFNγ (human, UniProt P01579 24-161, limits assumed); test: Binding, cross-reactivity table (Sandwich ELISA)
T3 construct: Native protein in a culture supernatant; also called nhuIFNγ
T3 sequence (looked up): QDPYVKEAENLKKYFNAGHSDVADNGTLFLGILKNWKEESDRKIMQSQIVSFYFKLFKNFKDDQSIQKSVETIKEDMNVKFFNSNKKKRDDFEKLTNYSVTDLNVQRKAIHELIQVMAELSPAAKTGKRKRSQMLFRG

native cynomolgus IFNγ = target: T4, native cynomolgus IFNγ (cynomolgus monkey, UniProt P63309 24-165, limits assumed); test: Binding, cross-reactivity table (Sandwich ELISA)
T4 construct: Native protein in a culture supernatant; also called ncyIFNγ
T4 sequence (looked up): T2 sequence (looked up)

recombinant cat IFNγ = target: T5, recombinant cat IFNγ (cat, UniProt P46402 24-167); test: Sandwich ELISA, IFNγ captured with pre-coated NI-0501
T5 construct: also called rcIFNγ
T5 sequence (looked up): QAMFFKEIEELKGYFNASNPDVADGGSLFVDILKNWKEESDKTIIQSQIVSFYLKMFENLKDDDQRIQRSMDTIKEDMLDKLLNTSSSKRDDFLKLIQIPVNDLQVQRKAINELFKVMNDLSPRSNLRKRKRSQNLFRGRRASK
Source text: (§1) The IFNγ from each species was detected using a polyclonal antibody specific for the IFNγ in that assay.

recombinant dog IFNγ = target: T6, recombinant dog IFNγ (dog, UniProt P42161 24-166); test: as above
T6 construct: also called rdIFNγ
T6 sequence (looked up): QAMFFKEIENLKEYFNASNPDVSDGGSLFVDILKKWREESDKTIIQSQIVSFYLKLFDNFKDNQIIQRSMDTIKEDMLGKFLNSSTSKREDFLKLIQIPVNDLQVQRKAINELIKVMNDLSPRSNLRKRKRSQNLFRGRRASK
Source text: as §1

MHC II Inhibition Cell-Based Assay IC50 (recombinant human IFNγ [1]): 0.185 nM
B1: AD1.3R3P6_F9 IgG (antibody, V domains shown)
VH: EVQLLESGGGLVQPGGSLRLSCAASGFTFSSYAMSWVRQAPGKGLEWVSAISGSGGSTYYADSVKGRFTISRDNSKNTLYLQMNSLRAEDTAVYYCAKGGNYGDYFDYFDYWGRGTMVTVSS
VL: NFMLTQPHSVSESPGKTVTISCTRSSGSIASNYVQWYQQRPGSAPTIVIYEDNQRPSGVPHRFSGSIDSSSNSASLTISGLKTEDEADYYCQSYEGFGGGTKLTVLG

MHC II Inhibition Cell-Based Assay IC50 (recombinant human IFNγ [1]): 0.233 nM
B2: AD1.4R4P2_G7 IgG (antibody, V domains shown)
VH: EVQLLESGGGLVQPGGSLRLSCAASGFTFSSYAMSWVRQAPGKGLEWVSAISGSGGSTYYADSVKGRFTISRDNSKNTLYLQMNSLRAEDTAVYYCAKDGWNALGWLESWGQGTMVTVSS
VL: NFMLTQPHAVSESPGKTVTISCTGRNGNIASNYVQWYQQRPDSAPTLIIFEDTQRPSGVPTRLSGSIDTSSNSASLIISSLRTEDEADYYCQSSDSNRVLFGGGTKVTVLG

MHC II Inhibition Cell-Based Assay IC50 (recombinant human IFNγ [1]): 0.322 nM
B3: AD1.4R4P1_B9 IgG (antibody, V domains shown)
VH: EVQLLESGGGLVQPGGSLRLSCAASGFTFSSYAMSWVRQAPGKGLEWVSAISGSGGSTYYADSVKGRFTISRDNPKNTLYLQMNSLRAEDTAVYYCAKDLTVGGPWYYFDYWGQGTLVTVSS
VL: NFMLTQPHSVSESPGKTVTISCTRSSGSIVSNYVQWYQQRPGSAPTTVIFDDDQRPSGVPGRFSGSLDSSSNSASLTISGLQTEDEADYYCQSYDSSNVVFGGGTKVTVLG

binding result [2]: binds
binding result (recombinant human IFNγ [3]): binds
binding result (native human IFNγ): binds
binding result (native cynomolgus IFNγ): binds
binding result (recombinant cat IFNγ): no binding
binding result (recombinant dog IFNγ): no binding
B4: NI-0501 (antibody, V domains shown)
VH: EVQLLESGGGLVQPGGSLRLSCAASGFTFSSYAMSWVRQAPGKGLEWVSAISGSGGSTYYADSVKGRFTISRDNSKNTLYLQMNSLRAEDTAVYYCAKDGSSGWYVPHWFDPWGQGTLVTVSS
VL: NFMLTQPHSVSESPGKTVTISCTRSSGSIASNYVQWYQQRPGSSPTTVIYEDNQRPSGVPDRFSGSIDSSSNSASLTISGLKTEDEADYYCQSYDGSNRWMFGGGTKLTVL
notes: It is the back-mutated version of A6; also called A6 back-mutated to germline; back-mutated A6

MHC II Inhibition Cell-Based Assay IC50 (recombinant human IFNγ [1]): 0.041 nM
B5: AC1.2R3P2_A6 IgG (antibody, V domains shown)
VH: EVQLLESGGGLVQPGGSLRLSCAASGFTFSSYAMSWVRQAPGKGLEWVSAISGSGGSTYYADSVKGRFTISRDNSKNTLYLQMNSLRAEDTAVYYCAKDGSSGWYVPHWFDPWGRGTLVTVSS
VL: NFMLTQPHSVSESPGKTVTISCTRSSGSIVSNYVQWYQQRPGSAPTTVIYEDNRRPSGVPDRFSGSIDSSSNTASLTISGLEAEDEADYYCQSYDGSNRWMFGGGTKLTVLG

MHC II Inhibition Cell-Based Assay IC50 (recombinant human IFNγ [1]): 0.708 nM
B6: AC1.2R2P2_D8 IgG (antibody, V domains shown)
VH: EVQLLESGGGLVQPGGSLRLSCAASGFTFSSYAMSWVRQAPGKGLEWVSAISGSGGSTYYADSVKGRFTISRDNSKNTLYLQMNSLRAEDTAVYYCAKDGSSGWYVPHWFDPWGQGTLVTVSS
VL: B5 VL with A44S, R54Q, T73S, E82K, A83T, G96S, S97N, R99F, M101V

MHC II Inhibition Cell-Based Assay IC50 (recombinant human IFNγ [1]): 1.53 nM
B7: AD1.3R3P5_F8 IgG (antibody, V domains shown)
VH: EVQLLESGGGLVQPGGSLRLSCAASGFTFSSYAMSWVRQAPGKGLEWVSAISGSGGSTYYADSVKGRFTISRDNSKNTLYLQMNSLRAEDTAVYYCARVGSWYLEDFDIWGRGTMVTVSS
VL: NFMLTQPHSVSESPGKTVTISCTRSSGSIASNYVHWYQQRPGSSPTTVIYEDNRRPSGVPARFSGSIDSSSNSASLTISGLETDDEADYYCQSSDTTYHGGVVFGGGTKLTVLG

MHC II Inhibition Cell-Based Assay IC50 (recombinant human IFNγ [1]): 0.203 nM
B8: AC1.4R4P2_C10 IgG (antibody, V domains shown)
VH: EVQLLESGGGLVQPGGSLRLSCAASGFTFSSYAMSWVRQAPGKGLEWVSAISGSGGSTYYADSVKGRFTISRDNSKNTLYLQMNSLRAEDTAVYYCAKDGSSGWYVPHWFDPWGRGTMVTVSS
VL: NFMLTQPHSVSESPGKTVTISCTRSSGTIASNYVQWYQQRPGSSPTTVIYEDNQRPSGVPDRFSGSIDSSSNSASLTISGLKTEDEADYYCQSYDNSNHWVFGGGTKVTVLG
